Biological target: Recombinant FEN-1 (pET-FEN-1) (human, UniProt P39748 1-380)
Assay: pull-down

Recombinant FEN-1 (pET-FEN-1), sequence (P39748 whole entry): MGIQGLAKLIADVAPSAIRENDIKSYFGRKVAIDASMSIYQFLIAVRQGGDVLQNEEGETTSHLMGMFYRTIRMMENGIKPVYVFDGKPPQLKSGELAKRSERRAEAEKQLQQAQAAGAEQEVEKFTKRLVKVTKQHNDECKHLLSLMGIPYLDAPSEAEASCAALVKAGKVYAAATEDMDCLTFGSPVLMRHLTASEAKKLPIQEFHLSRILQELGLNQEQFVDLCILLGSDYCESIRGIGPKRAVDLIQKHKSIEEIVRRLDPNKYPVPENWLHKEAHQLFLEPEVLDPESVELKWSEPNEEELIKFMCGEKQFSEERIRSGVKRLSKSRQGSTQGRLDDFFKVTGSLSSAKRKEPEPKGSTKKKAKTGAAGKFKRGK

B1: GST-RECQ1 RQC domain (residues 418-592) (domain or fragment, human, UniProt P46063 418-592, looked up)
chain: YGFGDIFRISSMVVMENVGQQKLYEMVSYCQNISKCRRVLMAQHFDEVWNSEACNKMCDNCCKDSAFERKNITEYCRDLIKILKQAEELNEKLTPLKLIDSWMGKGAAKLRVAGVVAPTLPREDLEKIIAHFLIQQYLKEDYSFTAYATISYLKIGPKANLLNNEAHAITMQVTK
  binding result: binds

B2: GST-RECQ1 C-terminal domain (residues 592-649) (domain or fragment, human, UniProt P46063 592-649, looked up)
chain: KSTQNSFRAESSQTCHSEQGDKKMEEKNSGNFQKKAANMLQQSGSKNTGAKKRKIDDA
  binding result: binds
